Assay results taken from paper PMC6769588.

Biological target: lectin-like oxidized LDL receptor 1 (LOX1) on bEnd.3 cells (mouse (endogenous in bEnd.3)) (UniProt Q9EQ09)
UniProt Q9EQ09, sequence (Q9EQ09 whole entry): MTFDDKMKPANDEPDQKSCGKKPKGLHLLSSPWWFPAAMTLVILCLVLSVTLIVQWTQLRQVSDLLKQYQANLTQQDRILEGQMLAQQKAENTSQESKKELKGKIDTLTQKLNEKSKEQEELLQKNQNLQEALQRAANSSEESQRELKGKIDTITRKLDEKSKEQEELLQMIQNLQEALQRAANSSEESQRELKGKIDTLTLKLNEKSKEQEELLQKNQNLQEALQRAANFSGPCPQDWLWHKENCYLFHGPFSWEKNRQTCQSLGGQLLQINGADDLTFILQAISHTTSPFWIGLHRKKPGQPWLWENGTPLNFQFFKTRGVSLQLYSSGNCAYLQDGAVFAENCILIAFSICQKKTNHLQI

decrease in uptake of DiI-labeled acro-apoE3/rHDL (3 µg/mL) by bEnd.3 cells pre-treated with anti-LOX1 antibody: 80 % decrease
Substance: Acrolein-modified apolipoprotein E3 (acro-apoE3) (from UniProt P02649 19-317) (natural protein)
